B1: anti-Gal1 monoclonal antibody 8F4F8G7 (antibody, V domains shown)
VH: EVQLQQSVAEFVRPGASVRLSCTASGFNIKNTYIHWVRQRPEQGLEWIGKIDPANGNTKYVPEFQGKATMTADTSSNTVYLHLSSLTSEDTAIYYCVDGYYGWYFAVWGTGTTVTVSS
VL: QAVVTQESALTTSPGETVTLTCRSSTGAVTTSNYANWVQEKPDHLFTGLIGATNNRAPGVPARFSGSLIGDKAVLTITGAQTEDEAIYFCALWYRNHFIFGSGTKVTVL
notes: Murine hybridoma mAb (deposit PTA-10535), lambda light chain; also called 14-19 8F4-F8-G7; clone 8F4.8F.67

Legend:
HUVEC = experiment: ELISA of VEGF secretion by HUVEC; format: cell-based, human; conditions: HUVEC incubated with Gal1
Method: Mouse IFN-γ and IL-10 ELISA sets were from BD Biosciences and mouse IL-17 kit was from R&D. Human soluble VEGF was assessed by ELISA (DY293B; R&D). Soluble Gal1 was determined using an in-house ELISA. Briefly, high binding 96-well microplates (Corning Costar) were coated with capture antibody (2 μg/ml purified rabbit anti-Gal1 polyclonal IgG) in 0.1 M sodium carbonate pH 9.5. After incubation for 18 hours at 4° C., wells were rinsed three times with wash buffer (0.05% Tween-20 in PBS) and incubated for 1 h at RT with blocking solution (2% BSA in PBS). Samples and standards (100 μl) were diluted in 1% BSA and incubated for 18 hours at 4° C. Plates were then washed and incubated with 100 ng/ml biotinylated detection antibody (purified rabbit anti-Gal1 polyclonal IgG) for 1 hour at RT. Plates were rinsed three times before adding horseradish peroxidase-labeled streptavidin (0.33 μg/ml; Sigma) for 30 min at RT. After washing, 100 μl of TMB solution (0.1 mg/ml tetramethylbenzidine and 0.06% H2O2 in citrate-phosphate buffer pH 5) was added to the plates. The reaction was stopped by adding 4N H2SO4. Optical densities were determined at 450 nm in a Multiskan MS microplate reader (Thermo Electron Corporation). A standard curve ranging from 2.5 to 160 ng/ml recombinant Gal1 was run in parallel.

B16 tumors [1] = experiment: Adoptive transfer of CFSE-labeled T cells or fluorescent beads into B16 tumor-bearing mice; format: in vivo, mouse
Method: (§1) Wild-type KS cells or shRNA clones (5×10^6 cells) were injected subcutaneously into 6- to 8-week old nude mice. Wild-type B16 cells or shRNA clones (2×10^5 cells) were injected into 6- to 8-week old B6 or B6/Rag^−/− mice and tumor development was monitored as described in Rubinstein et al. (2004) Cancer Cell 5, 241-251. Treatments with 8F4F8G7 mAb or control isotype (2.5, 7.5 or 15 mg/kg; i.p. injections every three days) were initiated when tumors reached 100 mm^3. Mice were sacrificed when tumors reached a volume greater than 2 cm^3. At 2 weeks after tumor challenge, lymph node cells (5×10^5 cells/well) were restimulated for 72 h with 1×10^4 irradiated (4,000 rads) B16 cells and were analyzed for proliferation and cytokine production. For adoptive transfer, splenic T cells (5×10^6) from tumor-bearing mice were labeled with CFSE (Molecular Probes) and injected through the tail vein into tumor-bearing recipient mice treated with 8F4F8G7 or control mAb. In related studies, fluorescent beads (3 μm; BD Biosciences), rather than splenic T cells, were injected into tumor-bearing animals treated with 8F4F8G7 or control antibody. CFSE^+ cells or PerCP-labeled beads were analyzed after 24 h or 15 min respectively by flow cytometry in tumor parenchyma and spleen.

B16 tumors [2] = experiment: Syngeneic B16 melanoma model; format: in vivo, mouse
Method: as §1
For immunostaining, mice were anesthetized and cardiac-perfused with PBS and 4% paraformaldehyde and tissues were embedded in OCT. To visualize the vasculature, mice were intravenously injected with FITC-conjugated Griffonia simplicifolia Lectin-1 (GLS-1B4, Vector) prior to heart perfusion and fixation. Pericyte maturation was assessed using antibodies specific for αSMA (1A4; Dako), desmin (D33; Dako), PDGFRβ (APB5; Biolegend) and Rgs5 (HPA001821; Prestige Sigma). The fraction of pericyte coverage was calculated as the ratio of αSMA area to the FITC-GLS-1B4 or CD31 stained area using a specific anti-CD31 antibody (Mec13.3; BD Biosciences). For immunoperoxidase staining, paraffin-embedded human tumor sections were incubated with anti-CD31 (JC/70A; Dako) and anti-Gal1 antibodies as described in Juszczynski et al. (2007) Proc Natl Acad Sci USA 104, 13134-13139 using the Vectastain Elite ABC kit (Vector). Studies with patient biopsies were subjected to Institutional Review Boards approval (CEMIC and IBYME). Hypoxia was detected after injection of pimonidazole hydrochloride for 30 min following immunostaining with Hypoxyprobe-1 plus kit (Natural Pharmacia International).

[3] = target: T1, recombinant human glutathione-s-transferase (GST)-Gal1 (human, UniProt P09382 1-135); experiment: ELISA on recombinant protein
T1 construct: Immunogen and ELISA antigen; not shown: glutathione-S-transferase (GST) tag
T1 sequence (P09382 whole entry): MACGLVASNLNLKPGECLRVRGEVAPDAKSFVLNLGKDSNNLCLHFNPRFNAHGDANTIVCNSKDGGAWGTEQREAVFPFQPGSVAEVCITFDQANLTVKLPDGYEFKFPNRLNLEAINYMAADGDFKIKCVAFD
Text: (§2) Anti-human Gal1 mAbs were obtained by immunizing B6-Cg-Tg (BCL2)22Wehi-J mice (Jackson Labs, Bar Harbor, Me.) with recombinant human glutathione-s-transferase (GST)-Gal1, generating anti-Gal1 hybridomas with standard methods and purifying the Gal1 monoclonal antibody and class-matched IgG2bλ, control by affinity chromatography. […] A previously described anti-Gal1 polyclonal antibody (Juszczynski et al. (2007) *Proc Natl Acad Sci USA* 104:13134-9) was used as a positive control in all assays.

recombinant His-Gal1 = target: T2, recombinant His-Gal1 (human, UniProt P09382 1-135, limits assumed); experiment: ELISA on recombinant protein
T2 construct: not shown: His tag
T2 sequence (P09382 whole entry): as above
Text: as §2

Molecule | VEGF secretion (HUVEC) | T cells reaching tumor parenchyma (increase) (B16 tumors [1]; CFSE-labeled T cells, vs control isotype) [fold] | number of CFSE+ T cells in spleens (B16 tumors [1]; recipient mice) | access of fluorescently-labeled beads to the tumor parenchyma (B16 tumors [1]; vs isotype-treated mice, 15 min) | microvessel density of tumors (B16 tumors [2]; 30 days post-inoculation) | frequency of CD34+ cells (B16 tumors [2]; day 20) | decreased tumor burden (B16 tumors [2]; immunocompetent mice, established B16 tumors, day 20) [%] | anti-tumor effect (B16 tumors [2]; immunodeficient B6/Rag−/− mice) | coverage by pericytes (B16 tumors [2]; vs isotype control) | dilated and tortuous vessels (B16 tumors [2]; vs isotype control) | pericyte phenotype (B16 tumors [2]; vs isotype control) | tumor hypoxia (pimonidazole adducts) (B16 tumors [2]; vs isotype control) | tumor vasculature: vessel diameter and distribution (B16 tumors [2]; vs isotype control, lectin-perfused vessels) | expression of desmin (B16 tumors [2]; vs isotype-treated tumors) | pericyte expression of platelet-derived growth factor receptor (PDGFR)β (B16 tumors [2]; vs isotype-treated tumors) | pericyte expression of regulator of G-protein signaling 5 (Rgs5) (B16 tumors [2]; vs isotype-treated tumors) | pericyte expression of α-smooth muscle actin (αSMA) (B16 tumors [2]; vs isotype-treated tumors) | binding result [3] | binding result (recombinant His-Gal1)
rGal1: recombinant human galectin-1 | lack of effects |  |  |  |  |  |  |  |  |  |  |  |  |  |  |  |  |  | 
B1 |  | 3 | no differences | increased access | only a slight decrease | No significant changes | ~86 | only a partial anti-tumor effect | greater coverage | fewer | more mature phenotype | markedly alleviated | resembled normal vascular networks | no significant variations | lower expression | lower expression | higher expression | binds | binds

Source: patent publication US10456465B2, “Compositions, kits, and methods for the diagnosis prognosis, monitoring, treatment and modulation of post-transplant lymphoproliferative disorders and hypoxia associated angiogenesis disorders using galectin-1” (Dana-Farber Cancer Institute, Inc., priority 2009, dated 2019)
